Data from publication PMC9520691 (ACS Omega, 2022).
Residue numbers refer to the chain shown, from its start. Numbers in names are those of the source. Where “and” joins values, the source holds several entries; their conditions need not be identical. Equal values may be shown once.

B1: full length ODC wildtype (enzyme, human, UniProt P11926 1-461, looked up)
chain: MNNFGNEEFDCHFLDEGFTAKDILDQKINEVSSSDDKDAFYVADLGDILKKHLRWLKALPRVTPFYAVKCNDSKAIVKTLAATGTGFDCASKTEIQLVQSLGVPPERIIYANPCKQVSQIKYAANNGVQMMTFDSEVELMKVARAHPKAKLVLRIATDDSKAVCRLSVKFGATLRTSRLLLERAKELNIDVVGVSFHVGSGCTDPETFVQAISDARCVFDMGAEVGFSMYLLDIGGGFPGSEDVKLKFEEITGVINPALDKYFPSDSGVRIIAEPGRYYVASAFTLAVNIIAKKIVLKEQTGSDDEDESSEQTFMYYVNDGVYGSFNCILYDHAHVKPLLQKRPKPDEKYYSSSIWGPTCDGLDRIVERCDLPEMHVGDWMLFENMGAYTVAAASTFNGFQRPTIYYVMSGPAWQLMQQFQNPDFPPEVEEQDASTLPVSCAWESGMKRHRAACASASINV
B2: full length ODC G84R (enzyme, human, UniProt P11926 1-461, looked up)
chain: B1 chain with G84R

Target: the molecule itself
Assay: AUC

Row | Protein | stoichiometry N
1 | B1 | 2
2 | B2 | 2 and 3
